Values quoted from earlier work in PMC10410519.

Target: Growth hormone receptor (Homo sapiens) (UniProt P10912)
Assay: competition

## hGH (from UniProt P01241)
  Ki: 3.5 nM
